Assays:
[1] = tested on: phosphorylated BZR1 and BZR2; test: In vitro dephosphorylation of pre-phosphorylated BZR1 and BZR2; type: biochemical, Arabidopsis; details: added after BIN2 and ATP were removed
Experimental: MBP-BZR1 and GST-BIN2 proteins were expressed and purified from E. coli and maltose or glutathione was removed from the proteins by ultrafiltration using Centricon 30 (Amicon Ultra, Millipore, Billerica, Mass.). To prepare fully phosphorylated BZR1 proteins, MBP-BZR1 protein was incubated with GST BIN2 as 1 to 1 ratio in the kinase buffer containing 100 μM ATP at 30° C. overnight. The protein mixture was incubated with glutathione Sepharose beads to remove GSTBIN2, then with amylose beads to purify MBP-pBZR1. Partially phosphorylated 32Plabeled pBZR1 and pBZR2 were prepared by the same method but MBP-BZR1 or MBP-BZR2 was incubated with GST BIN2 at a 15 to 1 ratio for 3 hrs in the presence of […] 32P-γATP. For dephosphorylation, GST-BSU1 was incubated with fully phosphorylated MBP-pBZR1 and 32P-MBP-pBZR1 or 32 P-MBP-pBZR2 for 12 or 16 Ins, […]

BIN2 = target: T1, BIN2 (Arabidopsis thaliana, UniProt Q39011); test: In vitro BIN2 inhibition assay (BIN2 phosphorylation of BZR1); type: biochemical
T1 construct: made in house; host or cells: E. coli
T1 sequence (Q39011 1-380): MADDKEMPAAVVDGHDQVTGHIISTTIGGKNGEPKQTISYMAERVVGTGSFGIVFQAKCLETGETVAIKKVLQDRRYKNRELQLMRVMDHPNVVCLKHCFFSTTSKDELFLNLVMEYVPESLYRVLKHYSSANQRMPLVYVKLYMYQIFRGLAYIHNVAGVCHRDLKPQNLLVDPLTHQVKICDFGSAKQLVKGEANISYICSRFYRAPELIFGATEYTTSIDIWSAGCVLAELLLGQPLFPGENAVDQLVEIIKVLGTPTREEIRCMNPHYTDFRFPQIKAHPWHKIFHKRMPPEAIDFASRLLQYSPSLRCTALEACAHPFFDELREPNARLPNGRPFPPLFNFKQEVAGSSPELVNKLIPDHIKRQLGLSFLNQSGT
Experimental: In vitro BIN2 inhibition assays were performed by 3 hrs co-incubation of MBP-BZR1, GST BIN2, GST BSU1 and ^32P-γATP or pre-incubation of GST-BIN2 with GST-BSU1 for various time followed by adding MBP-BZR1 and 32P-γATP. The examine activities of partial BSU1, N-terminal Kelch (1-363th amino acid) and C-terminal phosphatase (364-793th amino acid) region were used. GST, GST-BSU1, GSTBSU1-Ketch and GST-BSU1-phosphatase were pre-incubated with GST-BIN2 for 1 hr, and further incubated with MBP-BZR1 and ^32P-γATP for 3 hrs.
To test activities of BSU1-YFP, anti-GFP antibody-Protein A beads were used to immunoprecipitate BSU1-YFP from extracts of BSU1-YFP transgenic plants, and non-transgenic wild type plants were used as control. The beads were incubated with GST-BIN2 or GST bin2-1 for 1 hr, and then the beads were removed. The BSU1-treated GST-BIN2 or GST-bin2-1 was further incubated with MBP-BZR1 and ^32P-γATP for 3 hrs.

[2] = tested on: phospho-myelin basic protein; test: In vitro phosphatase assay using phospho-myelin basic protein; type: biochemical
Experimental: In vitro phosphatase assay using phospho-myelin basic protein was performed according to manufacturer's protocol (New England Biolab. Beverly, Mass.). To examine tyrosine phosphatase activity of BSU 1, 20 mM p-nitrophenyl phosphate was incubated with MBP-BSD) in 50 uL of reaction buffer (50 mM Tris. pH 7.2, 20 mM NaCl, 5 mM DTT, 10 RIM MgCl2). The reaction was quenched by the addition of 100 uL of 0.5 M NaOH after incubation at 30° C. for 1 hr. p-Nitrophenol production was determined by measuring A405 (extinction coefficient, e=1.78×104 M-tCm J).

PP1 = target: T2, PP1 (Homo sapiens, UniProt P36873); test: Inhibition of PP1 activity on BIN2; type: biochemical, mammalian
T2 construct: made in house; host or cells: E. coli
T2 sequence (P36873 whole entry): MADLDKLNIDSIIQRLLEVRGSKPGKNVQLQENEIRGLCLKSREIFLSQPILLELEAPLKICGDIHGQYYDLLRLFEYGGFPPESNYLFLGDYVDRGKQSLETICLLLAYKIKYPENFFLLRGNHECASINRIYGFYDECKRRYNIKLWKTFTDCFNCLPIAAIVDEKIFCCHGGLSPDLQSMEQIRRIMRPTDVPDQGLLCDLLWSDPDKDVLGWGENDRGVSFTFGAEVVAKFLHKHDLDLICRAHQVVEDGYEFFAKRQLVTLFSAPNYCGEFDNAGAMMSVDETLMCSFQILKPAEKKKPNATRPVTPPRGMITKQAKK
Experimental: It was next examined whether the mammalian homolog to BSU1, PP1, would dephosphorylate BIN2. A GST-tagged BIN2 was isolated from cells and incubated with PP1 purified from E. coli cells expressing the phosphatase.

B1: BSL1: closest homolog of BSU1 (SEQ ID NO: 28) (protein, listed as Arabidopsis thaliana)
chain: MGSKPWLHPAPQYKTLETFWDDEDDAPGPRCAHTLTAVAATKTHGPRLILFGGATAIEGGSSSVPGIRLAGVTNTVHSYDILTRKWTRLKPAGEPPSPRAAHAAAAVGTMVVFQGGIGPAGHSTDDLYVLDMTNDKFKWHRVVVQGDGPGPRYGHVMDLVSQRYLVTVTGNDGKRALSDAWALDTAQKPYVWQRLNPDGDRPSARMYASGSARSDGMFLLCGGRDTLGAPLGDAYGLLMHRNGQWEWTLAPGVAPSPRYQHAAVFVGARLHVSGGVLRGGRVIDAEASVAVLDTAAGVWLDRNGQVTSARGSKGQIDQDPSFELMRRCRHGAASVGIRIYVHGGLRGDVLLDDFLVAENSTFQSDISSPLLASDRTQQSSTPRFSYAARPPSGSEPSFSMSEGLSLDENSLEKLTEASAAEAEVASSVWRAAQLGAGTLDEEPSTSDASSPIVESTTDGTANEGDVRLHPRAVVVAKETVGSLGGMVRQLSLDQFQNESRRMVPMNNSDVPQPTKKFTRQKSPQGLHKKVIAALLRPRNWKPPGNRKFFLDSYEVGELCYAAEQIFMHEQTVLQLKAPIKVFGDLHGQFGDLMRLFDEYGFPSTAGDITYIDYLFLGDYVDRGQHSLETITLLLALKIEYPENVHLIRGNHEAADINALFGFRLECIERMGENDGIWAWTRFNQLFNYLPLAALIENKIICMHGGIGRSISTVEQIEKIERPITMDAGSLVLMDLLWSDPTENDSIEGLRPNARGPGLVTFGPDRVTEFCKRNKLQLIIRAHECVMDGFERFAQGQLITLFSATNYCGTANNAGAILVVGRGLVIVPKLIHPLPPPILSPENSPEHSGDDAWMQELNIQRPPTPTRGRPQPDFDRSSLAYI
**Q.** Which results are given for B1?
**A.** dephosphorylation of pre-phosphorylated BZR1 / BZR2 [1]: do not dephosphorylate phosphorylated BZR1 and BZR2; BIN2 phosphorylation of BZR1, co-incubation (BIN2; co-incubated with BIN2 and BZR1, 32P-γATP, 3 hrs): inhibit B1N2 phosphorylation of BZR1 and BZR2; phosphatase activity on phosphorylated myelin basic protein ([2]; protein purified from E.coli, metal ions 1 mM): showed manganese-dependent phosphatase activities

B2: Kelch repeat domain: N-terminal Kelch (1-363th amino acid) region of BSU1 (protein)
chain: MAPDQSYQYPSPSYESIQTFYDTDEDWPGPRCGHTLTAVFVNNSHQLILFGGSTTAVANHNSSLPEISLDGVTNSVHSFDVLTRKWTRLNPIGDVPSPRACHAAALYGTLILIQGGIGPSGPSDGDVYMLDMTNNKWIKFLVGGETPSPRYGHVMDIAAQRWLVIFSGNNGNEILDDTWALDTRGPFSWDRLNPSGNQPSGRMYASGSSREDGIFLLCGGIDHSGVTLGDTYGLKMDSDNVWTPVPAVAPSPRYQHTAVFGGSKLHVIGGILNRARLIDGEAVVAVLDTETGEWVDTNQPETSASGANRQNQYQLMRRCHHAAASFGSHLYVHGGIREDVLLDDLLVAETSQSSSPEPEEDNP
modifications: left off: a dimerising Fc or GST
notes: N-terminal Kelch (1-363th amino acid) region of BSU1
**Q.** With B2 as the molecule, how does the “BIN2 phosphorylation of BZR1, pre-incubation” value (BIN2; pre-incubated with BIN2 before adding BZR1) read?
**A.** showed no effect

B3: PP2: PP1 inhibitor, protein phosphatase inhibitor 2 (protein, UniProt P41236 2-205, looked up)
Protein phosphatase inhibitor …: AASTASHRPIKGILKNKTSTTSSMVASAEQPRGNVDEELSKKSQKWDEMNILATYHPADKDYGLMKIDEPSTPYHSMMGDDEDACSDTEATEAMAPDILARKLAAAEGLEPKYRIQEQESSGEEDSDLSPEEREKKRQFEMKRKLHYNEGLNIKLARQLISKDLHDDDEDEEMLETADGESMNTEESNQGSTPSDQQQNKLRSS
**Q.** With B3 as the molecule, how does the “enzymatic activity of PP1 on BIN2” value (PP1) read?
**A.** inhibited the enzymatic activity of the PP1 phosphatase on BIN2

B4: BSU1-D5ION: mutant BSU1, Asp510 to Asn, with reduced phosphatase activity (protein, UniProt Q9LR78 1-793, looked up, variant D510N)
Serine/threonine-protein …: MAPDQSYQYPSPSYESIQTFYDTDEDWPGPRCGHTLTAVFVNNSHQLILFGGSTTAVANHNSSLPEISLDGVTNSVHSFDVLTRKWTRLNPIGDVPSPRACHAAALYGTLILIQGGIGPSGPSDGDVYMLDMTNNKWIKFLVGGETPSPRYGHVMDIAAQRWLVIFSGNNGNEILDDTWALDTRGPFSWDRLNPSGNQPSGRMYASGSSREDGIFLLCGGIDHSGVTLGDTYGLKMDSDNVWTPVPAVAPSPRYQHTAVFGGSKLHVIGGILNRARLIDGEAVVAVLDTETGEWVDTNQPETSASGANRQNQYQLMRRCHHAAASFGSHLYVHGGIREDVLLDDLLVAETSQSSSPEPEEDNPDNYMLLDDYLMDEPKPLSSEPEASSFIMRSTSEIAMDRLAEAHNLPTIENAFYDSAIEGYVPLQHGAETVGNRGGLVRTASLDQSTQDLHKKVISTLLRPKTWTPPANRDFFLSYLEVKHLCDEVEKIFMNEPTLLQLKVPIKVFGNIHGQYGDLMRLFHEYGHPSVEGDITHIDYLFLGDYVDRGQHSLEIIMLLFALKIEYPKNIHLIRGNHESLAMNRIYGFLTECEERMGESYGFEAWLKINQVFDYLPLAALLEKKVLCVHGGIGRAVTIEEIENIERPAFPDTGSMVLKDILWSDPTMNDTVLGIVDNARGEGVVSFGPDIVKAFLERNGLEMILRAHECVIDGFERFADGRLITVFSATNYCGTAQNAGAILVIGRDMVIYPKLIHPHPPPISSSEEDYTDKAWMQELNIEMPPTPARGESSE
**Q.** B4 was tested. Which “phosphatase activity of the wild type protein” value ([2]; phospho-myelin basic proteins as a substrate) did it give?
**A.** about 15%
